Results from patent US20160137696A1 (Bristol-Myers Squibb, published 2016).
Starred links: 1 amine or outer side, 2 acyl side, 3 side chain; linkers in the order of their positions; H or OH if unused. Positions of bridges follow the written chain, without caps; N, C: chain ends. Non-standard residues stand in square brackets, D forms with d. Groups on a side chain read outwards from the residue. Primed or numbered codes have the meaning given here. No end group written: not given here. *: point of attachment. Pra′ = propargylglycine (built in as LPH), clicked to a 1-substituted triazol-4-yl-alanine, O=C([C@H](Cc1cn([*:3])nn1)N[*:1])[*:2]; X1 = (S)‑3‑carboxy‑3‑(15-carboxypentadecanoylamino)propyl, O=C(O)CCCCCCCCCCCCCCC(=O)N[C@@H](CC*)C(=O)O; Phe(4-OMe) = p-methoxyphenylalanine (O-methyl-L-tyrosine), COc1ccc(C[C@H](N[*:1])C(=O)[*:2])cc1; Pra″ = its azide, alkyne or alkene has reacted where a group follows in round brackets; Pra(4) = propargylglycine, clicked with an azide to give a triazolylalanine residue; X2 = (S)‑3‑carboxy‑3‑palmitamidopropyl, CCCCCCCCCCCCCCCC(=O)N[C@@H](CC*)C(=O)O; Pra(3) = propargylglycine, clicked to an azide to give a triazolyl-alanine; triazole = 1,2,3-triazole formed by click of the Pra alkyne with the azide; Trp(1-CH2CO) = O=C([C@H](Cc1cn(CC(=O)[*:3])c2ccccc12)N[*:1])[*:2]; Phe(3,4,5-F3) = N[C@@H](Cc1cc(F)c(F)c(F)c1)C(=O)O; C18 diacid = O=C(O)CCCCCCCCCCCCCCCCC(=O)*; C16 diacid = O=C(O)CCCCCCCCCCCCCCC(=O)*; γGlu = O=C(O)[C@H](CCC(=O)[*:2])N[*:1]; Aha = [N-]=[N+]=NCC[C@H](N)C(=O)O; Hyp = O=C(O)[C@@H]1C[C@@H](O)CN1; NMeF = CN[C@@H](Cc1ccccc1)C(=O)O; dHyp = O=C(O)[C@H]1C[C@H](O)CN1; NMeNle = CCCC[C@H](NC)C(=O)O; triazole″ = not defined here; Bzt = benzothienylalanine; Pip = O=C(O)[C@@H]1CCCCN1; NMeA = CN[C@@H](C)C(=O)O; Orn = NCCC[C@H](N)C(=O)O; PEG7′ = not defined here; Pra = C#CC[C@H](N)C(=O)O; Dab = NCC[C@H](N)C(=O)O; Dap = NC[C@H](N)C(=O)O

B1: INT-130AB (peptide)
peptide: {CH2CO}-Y[NMeA]NP[Dap]L[Hyp]W[Dab][Trp(1-CH2CO)][NMeNle][NMeNle]LCGGG[Pra]-OH
modifications: thioether N-14
SMILES: C#CC[C@H](NC(=O)CNC(=O)CNC(=O)CNC(=O)[C@@H]1CSCC(=O)N[C@@H](Cc2ccc(O)cc2)C(=O)N(C)[C@@H](C)C(=O)N[C@@H](CC(N)=O)C(=O)N2CCC[C@H]2C(=O)N[C@@H](CN)C(=O)N[C@@H](CC(C)C)C(=O)N2C[C@H](O)C[C@H]2C(=O)N[C@@H](Cc2c[nH]c3ccccc23)C(=O)N[C@@H](CCN)C(=O)N[C@@H](Cc2cn(CC(=O)O)c3ccccc23)C(=O)N(C)[C@@H](CCCC)C(=O)N(C)[C@@H](CCCC)C(=O)N[C@@H](CC(C)C)C(=O)N1)C(=O)O
notes: also called Intermediate 130AB
B2: INT-130AF (peptide)
peptide: {CH2CO}-Y[NMeA]NP[Dap]L[Hyp]W[Dab][Trp(1-CH2CO)][NMeNle][NMeNle]LC[Pra]-OH
modifications: thioether N-14
SMILES: C#CC[C@H](NC(=O)[C@@H]1CSCC(=O)N[C@@H](Cc2ccc(O)cc2)C(=O)N(C)[C@@H](C)C(=O)N[C@@H](CC(N)=O)C(=O)N2CCC[C@H]2C(=O)N[C@@H](CN)C(=O)N[C@@H](CC(C)C)C(=O)N2C[C@H](O)C[C@H]2C(=O)N[C@@H](Cc2c[nH]c3ccccc23)C(=O)N[C@@H](CCN)C(=O)N[C@@H](Cc2cn(CC(=O)O)c3ccccc23)C(=O)N(C)[C@@H](CCCC)C(=O)N(C)[C@@H](CCCC)C(=O)N[C@@H](CC(C)C)C(=O)N1)C(=O)O
B3: Example 14123 (peptide)
peptide: FXDPXLPWXWXXLCGE
modifications: ClAc-Tyr(4-F)-Pip-Asp-Pro-Dap-Leu-Hyp-Trp-Dab-Trp'-mNle-mNle-Leu-Cys-Gly-((S)-4-(Fmoc-amino)-5-(tert-butoxy)-5-oxopentanoic acid)-[Modified resin 14A], deprotected; Glu joined through its gamma-carboxyl; 14A = ethylenediamine amide of the gamma-carboxyl of Glu N-(17-carboxyheptadecanoyl); cyclised ClAc-Cys
B4: INT-130AG (peptide)
peptide: {CH2CO}-Y[NMeA]NP[Dap]L[Hyp]W[Dab][Trp(1-CH2CO)][NMeNle][NMeNle]EC[Pra]-OH
modifications: thioether N-14
SMILES: C#CC[C@H](NC(=O)[C@@H]1CSCC(=O)N[C@@H](Cc2ccc(O)cc2)C(=O)N(C)[C@@H](C)C(=O)N[C@@H](CC(N)=O)C(=O)N2CCC[C@H]2C(=O)N[C@@H](CN)C(=O)N[C@@H](CC(C)C)C(=O)N2C[C@H](O)C[C@H]2C(=O)N[C@@H](Cc2c[nH]c3ccccc23)C(=O)N[C@@H](CCN)C(=O)N[C@@H](Cc2cn(CC(=O)O)c3ccccc23)C(=O)N(C)[C@@H](CCCC)C(=O)N(C)[C@@H](CCCC)C(=O)N[C@@H](CCC(=O)O)C(=O)N1)C(=O)O

biological target: T1, Recombinant Human PD-L1-TVMV-His (human, UniProt Q9NZQ7 19-239); assay: HTRF vs PD-1-Ig; B = IC50 0.01-0.099 µM
T1 construct: expressed in HEK293T cells; also called PD-L1-His; hPD-L1(19-239)-TVMV-His
T1 sequence (Q9NZQ7 other isoform, or with tags, fused parts or gaps limits assumed): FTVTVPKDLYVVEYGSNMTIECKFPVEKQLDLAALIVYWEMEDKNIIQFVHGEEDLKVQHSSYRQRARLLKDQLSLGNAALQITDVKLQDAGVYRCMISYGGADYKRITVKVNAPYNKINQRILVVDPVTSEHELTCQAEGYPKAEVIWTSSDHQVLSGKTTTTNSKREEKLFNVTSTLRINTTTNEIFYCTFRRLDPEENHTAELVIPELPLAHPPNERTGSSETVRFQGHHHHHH
Protocol: (§1) Homogenous Time-Resolved Fluorescence (HTRF) Assays of Binding of Soluble PD-1 to Soluble PD-L1. Soluble PD-1 and soluble PD-L1 refers to proteins with carboxyl-end truncations that remove the transmembrane-spanning regions and are fused to heterologous sequences, specifically the Fc portion of the human immunoglobuling G sequence (Ig) or the hexahistidine epitope tag (His). All binding studies were performed in an HTRF assay buffer consisting of dPBS supplemented with 0.1% (w/v) bovine serum albumin and 0.05% (v/v) Tween-20. For the PD-1-Ig/PD-L1-His binding assay, inhibitors were pre-incubated with PD-L1-His (10 nM final) for 15 m in 4 μl of assay buffer, followed by addition of PD-1-Ig (20 nM final) in 1 μl of assay buffer and further incubation for 15 m. PD-L1 fusion proteins from either human, cynomologous macaques, mouse, or other species were used. HTRF detection was achieved using europium crypate-labeled anti-Ig monoclonal antibody (1 nM final) and allophycocyanin (APC) labeled anti-His monoclonal antibody (20 nM final). Antibodies were diluted in HTRF detection buffer and 5 μl was dispensed on top of binding reaction. The reaction was allowed to equilibrate for 30 minutes and signal (665 nm/620 nm ratio) was obtained using an EnVision fluorometer. Additional binding assays were established between PD-I-Ig/PD-L2-His (20 and 5 nM, respectively), CD80-His/PD-L1-Ig (100 and 10 nM, respectively) and CD80-His/CTLA4-Ig (10 and 5 nM, respectively). Binding/competition studies between biotinylated Compound No. 71 and human PD-L1-His were performed as follows. Macrocyclic peptide inhibitors were pre-incubated with PD-L1-His (10 nM final) for 60 minutes in 4 μl of assay buffer followed by addition of biotinylated Compound No. 71 (0.5 nM final) in 1 μl of assay buffer. Binding was allowed to equilibrate for 30 minutes followed by addition of europium crypated labeled Streptavidin (2.5 pM final) and APC-labeled anti-His (20 nM final) in 5 μl of HTRF buffer. The reaction was allowed to equilibrate for 30 m and signal (665 nm/620 nm ratio) was obtained using an EnVision fluorometer.

| IC50 [nM] | Binder |
| --- | --- |
| 10 to 99 | {CH2CO}-Y[NMeA]DPHK[Hyp]WK[Trp(1-CH2CO)][NMeNle][NMeNle]ECG[Pra′]([triazole-X1]) (thioether N-14) [Example 14075] |
| 10 to 99 | {CH2CO}-[Phe(3,4,5-F3)][NMeF][NMeNle][dP]DV[NMeF][Orn][dP]WYLCG[Pra′]([triazole-X1]) (thioether N-13) [Example 14073] |
| 10 to 99 | {CH2CO}-Y[NMeA]NP[Dap]L[Hyp]WS[Trp(1-CH2CO)][NMeNle][NMeNle]LCG[Pra′]([triazole-X2]) (thioether N-14) [Example 14080] |
| 10 to 99 | {CH2CO}-Y[NMeA]DPHK[Hyp]WKW[NMeNle][NMeNle]ECG[Pra(3)]([triazole″-2,5,8,11‑tetraoxatridecyl])G (thioether N-14; reading uncertain) [Example 14063] |
| 10 to 99 | {CH2CO}-Y[NMeA]NP[Dap]L[Hyp]WS[Trp(1-CH2CO)][NMeNle][NMeNle]LCG[Pra(4)]([triazole-Dab-C16 diacid]) (thioether N-14) [Example 14083] |
| 10 to 99 | {CH2CO}-Y[NMeA]DPHQ[Hyp]WSW[NMeNle][NMeNle]ECG[Pra(3)]([triazole″-X2])G (thioether N-14; reading uncertain) [Example 14062] |
| 10 to 99 | {CH2CO}-Y[NMeA]NP[Dap]L[Hyp]W[Dab][Trp(1-CH2CO)][NMeNle][NMeNle]LCGGG[Pra″]([triazole-PEG7′-γGlu-C18 diacid]) (thioether N-14 (inferred)) [Example 13124] |
| 10 to 99 | {CH2CO}-[Phe(3,4,5-F3)][NMeF][NMeNle][dHyp]DV[NMeF]D[dP]WYLCG[Pra′]([triazole-X1]) (thioether N-13) [Example 14074] |
| 10 to 99 | {CH2CO}-Y[NMeA]DPHQ[Hyp]WSW[NMeNle][NMeNle]ECG[Pra′]([triazole-X1])G (thioether N-14) [Example 14069] |
| 10 to 99 | B1 |
| 10 to 99 | {CH2CO}-Y[NMeA]DPHK[Hyp]WK[Trp(1-CH2CO)][NMeNle][NMeNle]ECG[Pra′]([triazole-X2]) (thioether N-14) [Example 14079] |
| 10 to 99 | {CH2CO}-Y[NMeA]DPHQ[Hyp]WSW[NMeNle][NMeNle]ECG[Pra′]([triazole-X1]) (thioether N-14) [Example 14068] |

biological target: T1, Recombinant Human PD-L1-TVMV-His; assay: HTRF vs PD-1-Ig; C = IC50 0.0003-0.0099 µM
Protocol: as §1

| IC50 [nM] | Binder |
| --- | --- |
| 0.3 to 9.9 | {CH2CO}-Y[NMeA]NP[Dap]L[Hyp]WS[Bzt][NMeNle][NMeNle]RCG[Aha] (thioether N-14) [INT-1300B] |
| 0.3 to 9.9 | {CH2CO}-Y[Pip]NP[Dap]L[Hyp]W[Dab][Trp(1-CH2CO)][NMeNle][NMeNle]LCG[Pra] (thioether N-14 (inferred)) [INT-130AI] |
| 0.3 to 9.9 | B2 |
| 0.3 to 9.9 | {CH2CO}-Y[Pip]NP[DapMe]L[Hyp]W[Dab][Trp(1-CH2CO)][NMeNle][NMeNle]ECG[Pra] (thioether N-14 (inferred)) [INT-130AL] |
| 0.3 to 9.9 | {CH2CO}-Y[Pip]NP[Dap]L[Hyp]W[Dab][Trp(1-CH2CO)][NMeNle][NMeNle]ECG[Pra] (thioether N-14 (inferred)) [INT-130AJ] |
| 0.3 to 9.9 | {CH2CO}-Y[NMeA]NP[Dap]L[Hyp]W[Dab][Trp(1-CH2CO)][NMeNle][NMeNle]DC[Pra]-OH (thioether N-14 (inferred)) [INT-130AH] |
| 0.3 to 9.9 | {CH2CO}-Y[Pip]NP[DapMe]L[Hyp]W[Dab][Trp(1-CH2CO)][NMeNle][NMeNle]LCG[Pra] (thioether N-14 (inferred)) [INT-130AK] |
| 0.3 to 9.9 | {CH2CO}-Y[Pip]NP[Dap]L[Hyp]W[Dab][Trp(1-CH2CO)][NMeNle][NMeNle]LCG[Dap]([γGlu-C18 diacid]) (thioether N-14 (inferred)) [Example 13152] |
| 0.3 to 9.9 | {CH2CO}-Y[NMeA]NP[Dap]L[Hyp]WS[Bzt][NMeNle][NMeNle]RCG[Pra] (thioether N-14) [INT-1300A] |
| 0.3 to 9.9 | B3 |
| 0.3 to 9.9 | {CH2CO}-[Phe(4-OMe)][Pip]NPHQ[Hyp]W[Dab][Trp(1-CH2CO)][NMeNle][NMeNle]LCG[Dap]([γGlu-C18 diacid]) (thioether N-14) [Example 13154] |
| 0.3 to 9.9 | {CH2CO}-Y[NMeA]NP[Dap]L[Hyp]WSW[NMeNle][NMeNle]RCG[Pra′]([triazole-X1]) (thioether N-14) [Example 14066] |
| 0.3 to 9.9 | B4 |
| 0.3 to 9.9 | {CH2CO}-Y[NMeA]NP[Dap]L[Hyp]W[Dab][Trp(1-CH2CO)][NMeNle][NMeNle]LCG[Dap]([γGlu-C18 diacid]) (thioether N-14 (inferred)) [Example 13153] |
